Read-outs that look alike come from different tables or passages of the source.
T1: C-terminally active myostatin (R&D systems) (UniProt O14793 267-375, limits assumed)
T1 construct: mature
T1 sequence (looked up): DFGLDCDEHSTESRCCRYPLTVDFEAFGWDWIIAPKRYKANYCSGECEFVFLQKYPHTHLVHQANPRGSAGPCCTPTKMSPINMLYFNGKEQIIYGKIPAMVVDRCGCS

T2: DLK1-Fc fusion protein (human)
T2 construct: also called DLK-Fc
T2 chain: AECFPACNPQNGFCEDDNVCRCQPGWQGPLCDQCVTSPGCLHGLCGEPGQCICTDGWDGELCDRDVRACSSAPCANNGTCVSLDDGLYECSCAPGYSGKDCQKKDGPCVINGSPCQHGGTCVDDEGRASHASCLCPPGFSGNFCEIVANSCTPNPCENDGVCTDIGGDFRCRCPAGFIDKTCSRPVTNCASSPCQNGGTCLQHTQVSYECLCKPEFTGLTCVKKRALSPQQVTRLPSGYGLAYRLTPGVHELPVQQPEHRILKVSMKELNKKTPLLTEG

T3: EGF5-6-Fc (DLK1 deletion mutant without the 1st to 4th EGF-like repeat domains) (human, UniProt P80370 170-302)
T3 construct: also called 5M-Fc; not shown: human antibody Fc region of the pYK602-Fc vector and any SfiI-junction residues
T3 sequence: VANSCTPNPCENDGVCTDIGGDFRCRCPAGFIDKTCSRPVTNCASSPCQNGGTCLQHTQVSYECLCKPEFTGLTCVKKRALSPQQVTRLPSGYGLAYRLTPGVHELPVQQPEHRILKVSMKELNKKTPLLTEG

B1: EGF6-Fc (Fc fusion)
chain: PVTNCASSPCQNGGTCLQHTQVSYECLCKPEFTGLTCVKKRALSPQQVTRLPSGYGLAYRLTPGVHELPVQQPEHRILKVSMKELNKKTPLLTEG
notes: also called 6M-Fc; not shown: human antibody Fc region of the pYK602-Fc vector and any SfiI-junction residues
B2: EGF4-6-Fc (Fc fusion)
chain: KDGPCVINGSPCQHGGTCVDDEGRASHASCLCPPGFSGNFCEIVANSCTPNPCENDGVCTDIGGDFRCRCPAGFIDKTCSRPVTNCASSPCQNGGTCLQHTQVSYECLCKPEFTGLTCVKKRALSPQQVTRLPSGYGLAYRLTPGVHELPVQQPEHRILKVSMKELNKKTPLLTEG
notes: also called 4M-Fc; not shown: human antibody Fc region of the pYK602-Fc vector and any SfiI-junction residues
B3: ACVR1A-Fc (Fc fusion, UniProt Q04771 21-124, looked up)
chain: MEDEKPKVNPKLYMCVCEGLSCGNEDHCEGQQCFSSLSINDGFHVYQKGCFQVYEQGKMTCKTPPSPGQAVECCQGDWCNRNITAQLPTKGKSFPGTQNFHLEV
notes: Control; origin not described; not shown: Fc; not described
B4: ACVR2B D11 (monoclonal scFv-phage) (scFv, V domains shown)
VH: MQLVQSGGGLVQPGRSLGLSCTASGFTFGDYAMSWVRQAPGKGLEWVGFIRSKAYGGTTEYAASVKGRLTISRDDSKSIAYLQMNSLRAEDTAVYYCARGHYGMDVWGQGTTVTVSS
VL: DIQMTQSPSSLSASVGDRVTITCRASQNISNFLNWYQQKPGKAPKLLIYSASRLQRGVPSRFSGSGSGTDFTLTISSLQPEDFATYYCQQSYSTPYTFGQGTKLEIK
B5: EGF3-6-Fc (DLK1 deletion mutant without the 1st and 2nd EGF-like repeat domains) (Fc fusion)
chain: DVRACSSAPCANNGTCVSLDDGLYECSCAPGYSGKDCQKKDGPCVINGSPCQHGGTCVDDEGRASHASCLCPPGFSGNFCEIVANSCTPNPCENDGVCTDIGGDFRCRCPAGFIDKTCSRPVTNCASSPCQNGGTCLQHTQVSYECLCKPEFTGLTCVKKRALSPQQVTRLPSGYGLAYRLTPGVHELPVQQPEHRILKVSMKELNKKTPLLTEG
notes: also called 3M-Fc; not shown: human antibody Fc region of the pYK602-Fc vector and any SfiI-junction residues
B6: ACVR2B F08 (monoclonal scFv-phage) (scFv, V domains shown)
VH: VQLVESGGGLVQPGGSLRLSCAASGFTFSDHYMDWVRQAPGKGLEWVGRTRNKANSYTTEYAASVKGRFTISRDDSKNSLYLQMNSLRAEDTAVYYCTKGAWLDYWGQGTLVTVSS
VL: IQMTQSPSAMSASVGDRVTITCRASQGISNYLAWFQQKPGKVPKRLIYGASSLQGGVPSRFSGSGSGTEFTLTITSLQPEDFATYFCLQHKSYPLTFGPGTKVEIK
notes: also called F8
B7: ACVR2B C08 (monoclonal scFv-phage) (scFv, V domains shown)
VH: VQLVESGGGLVQPGGSLRLSCSASGFTFSSYAMHWVRQAPGKGLEYVSAISSNGGSTYYADSVKGRFTISRDNSKNTLYLQMNSLRAEDTAVYYCAKTYGGYGNAFDIWGQGTMITVSS
VL: DIQMTQSPSSVSASVGDRVTITCRASQGISRWLAWYQQKPGKAPKLLIYAASNLQSGVPSRFSGSGSGTDFTLTINSLQPEDFATYFCQQGKSFPYTFGPGTKVEIK
notes: also called C8
B8: human antibody B09 (full-length IgG) (antibody, V domains shown)
VH: QMQLVESGGRLVRPGGSLRLSCAASGFPFTSYAMNWVRQTPGKGLEWVSTITATSGKTYYADSVKGRFTISRDNSRNTLFLQMNSLRAEDTAVYYCVRGESCSGGACSDFDYWGQGALVTVSS
VL: QLVLTQPASVSGSPGQSVTISCTGTSSDIGRYNRVSWYQHHPGKAPKLILNDVTTRPSGFSNRFSGSKSGNTASLTISGLQAEDEADYSCGSYAGSYTYVFGTGTKVTVL
notes: Converted into full-length IgG with pNATAB H and pNATAB L vectors; also called B09 antibody; DLK1 antibody B09
B9: ACVR2B D07 (monoclonal scFv-phage) (scFv, V domains shown)
VH: QVQLVQSGAEVKKPGASVKVSCKASGYTFTSYYMHWVRQAPGQGLEWMGIINPSGGSTSYAQKFQGRVTMTRDTSTSTVYMELSSLRSEDTAVYYCAKDQSRGWYSNFDSWGQGTLVTVSS
VL: DIQMTQSPSTLSASVGDRVTITCRASQTVSNWLAWYQLKPGKAPKLLIYKASSLESGVPSRFSGTGSETEFTLTISSLQPDDFATYYCQQYHSYPITFGQGTRLEIK
notes: also called D7
B10: JM-Fc (juxtamembrane region of DLK1, all six EGF-like repeat domains deleted) (Fc fusion)
chain: KKRALSPQQVTRLPSGYGLAYRLTPGVHELPVQQPEHRILKVSMKELNKKTPLLTEG
notes: also called juxtamembrane region (JM); not shown: human antibody Fc of the pYK602-Fc vector and the SfiI junction residues between JM and Fc
B11: ACVR2B-Fc fusion protein (Fc fusion, not shown: a dimerising Fc or GST; small tags and cut ends)
chain: SGRGEAETRECIYYNANWELERTNQSGLERCEGEQDKRLHCYASWRNSSGTIELVKKGCWLDDFNCYDRQECVATEENPQVYFCCCEGNFCNERFTHLPEAGGPEVTYEPPPTAPTLLT
notes: also called water-soluble ACVR2B

Tests used:
[1] = target: T1, C-terminally active myostatin (R&D …); experiment: ELISA, coating 1 ug/ml myostatin, binding 10 nM, anti-human Fc HRP
[2] = target: B11; experiment: SPR (ProteOn XPR36), ACVR2B-Fc coated on the chip, Fc channel as reference
Protocol: (§1) This experiment was performed using a ProteOn XPR36 instrument (Bio-Rad). First, a sensor chip (GLC) was activated by reacting 0.1 M EDC and 0.025 M sulfo-NHS (Bio-Rad) for 60 seconds. […] The coating procedure was completed by allowing 1 M ethanolamine-HCl) (pH 8.5) to flow at the coated chip for 200 seconds. To test the bound proteins, the chip was rotated at an angle of 90°, and stabilized by allowing DPBST (PBS with 0.005% Tween 20) to flow on the chip for 30 minutes.

[3] = target: T1, C-terminally active myostatin (R&D …); experiment: ELISA on coated myostatin (1 ug/ml), Fc-HRP
[4] = target: T4, anti-myc antibody coated on the ELISA plate; experiment: phage ELISA, anti-myc coated
T4 construct: also called a-MYC; a-myc
Protocol: (§2) Colonies obtained from a group of the polyclonal phage antibodies having high binding capacity were cultured at a temperature of 37° C. for 16 hours in a 96-deep well plate (Bioneer 90030) containing 1 ml of a medium supplemented with 2×YTCM, 2% glucose, and 5 mM MgCl₂. 100 to 200 μl of the cultured cells were taken, and diluted with 1 ml of a medium supplemented with 2×YTCM, 2% glucose, and 5 mM MgCl₂ so that the OD₆₀₀ value of the cultured cells reached 1. Thereafter, the cells were cultured at a temperature of 37° C. for 2 to 3 hours in a 96-deep well plate so that the OD₆₀₀ value reached 0.5 to 0.7. Then, the cells were infected with an […] so that an MOI value became 1:20, and then cultured at a temperature of 30° C. for 16 hours in a medium supplemented with 2×YTCMK, 5 mM MgCl₂, and 1 mM IPTG. The cultured cells were centrifuged (at 4,500 rpm and 4° C. for 15 minutes) to collect a supernatant. Then, the supernatant was thoroughly dissolved in 4% PEG 6000 and 3% NaCl, and reacted on ice for an hour. The resulting reaction mixture was centrifuged again (at 8,000 rpm and 4° C. for 20 minutes), and the pellet was dissolved in PBS, and then centrifuged (at 12,000 rpm and 4° C. for 10 minutes) to obtain a supernatant, which was transferred to a new tube and stored at 4° C. Subsequently, a 96-well immunoplate was coated with antigens at a concentration of 100 ng per well by treating the immunoplate with the antigens at 4° C. for 16 hours, and each well was then blocked with skim milk (4%) dissolved in PBS. Each well was washed with 0.2 ml of PBS-Tween 20 (0.05%), and 100 μl of the monoclonal scFv-phages obtained by the above-described method were added to each well, and then reacted at room temperature for 2 hours. Each well was again washed four times with […] of PBS-Tween 20 (0.05%), and a secondary antibody, anti-M13-HRP, was diluted at 1:2000, added to each well, and then reacted at room temperature for an hour. Each well was washed with […] of PBS-Tween 20, colorimetrically developed, and then measured for optical density at 490 nm.

[5] = target: B11; experiment: phage ELISA, ACVR2B coated
[6] = target: T4, anti-myc antibody coated on the ELISA …; experiment: phage ELISA, anti-myc coated; remark: listed apart in the source
[7] = target: B11; experiment: phage ELISA; OD on ACVR2B divided by OD on a-myc
[8] = target: T5, Fc; experiment: phage ELISA, Fc coated
T5 construct: domain: Fc
Protocol: as §2

[9] = target: T5, Fc; experiment: phage ELISA, Fc coated; remark: listed apart in the source
[10] = target: B11; experiment: phage ELISA, ACVR2B coated; remark: listed apart in the source
Protocol: as §2

[11] = target: T2, DLK1-Fc fusion protein; experiment: SPR (ProteOn XPR36)
[12] = target: T3, EGF5-6-Fc (DLK1 deletion mutant without …); experiment: SPR (ProteOn XPR36), ACVR2B-Fc coated on the chip, Fc channel as reference
Protocol: as §1

| Binder | binding result [1] | binding result [2] | OD490 [4] | OD490 [5] | OD490 [6] | Ratio [7] | OD490 [8] | OD490 [9] | OD490 [10] | further results |
| --- | --- | --- | --- | --- | --- | --- | --- | --- | --- | --- |
| B1 | binds | no binding | – | – | – | – | – | – | – | – |
| B2 | binds | binds | – | – | – | – | – | – | – | – |
| B3 | – | – | – | – | – | – | – | – | – | binding result [3]: no binding (tested: 1 nM) |
| B4 | – | – | 0.834 OD | 3.05 OD | 0.833 OD | 3.66 | 0.0429 OD | 0.042 OD | 3.05 OD | – |
| B5 | binds | binds | – | – | – | – | – | – | – | – |
| B6 | – | – | 0.783 OD | 2.94 OD | 0.783 OD | 3.75 | 0.117 OD | 0.116 OD | 2.94 OD | – |
| B7 | – | – | 1.17 OD | 2.87 OD | 1.17 OD | 2.45 | 0.0721 OD | 0.072 OD | 2.86 OD | – |
| B8 | – | – | – | – | – | – | – | – | – | Kd [11]: 0.0109 nM; koff [11]: 6.49e-05 s⁻¹; kon [11]: 3.41e+06 M⁻¹ s⁻¹ |
| B9 | – | – | 0.241 OD | 2.66 OD | 0.24 OD | 11 | 0.0428 OD | 0.042 OD | 2.66 OD | – |
| B10 | binds | no binding | – | – | – | – | – | – | – | – |
| B11 | – | – | – | – | – | – | – | – | – | binding result [12]: binds |

— patent publication US20150030595A1 (ANTIBODY AND RECEPTOR THERAPEUTICS, published 2015)
